FRET efficiency data for two molecules are collected here from article PMC7900760, “Perilipin 5 S155 phosphorylation by PKA is required for the control of hepatic lipid metabolism and glycemic control” (Journal of Lipid Research, 2021).

Experiment [1] addresses T1, ATGL-CFP (adipose triglyceride lipase fused to CFP) (UniProt Q8BJ56 1-486).
T1 construct: Adipose triglyceride lipase (ATGL); source: HeLa cells, transiently transfected (Lipofectamine 3000), in live cells
T1 sequence (looked up): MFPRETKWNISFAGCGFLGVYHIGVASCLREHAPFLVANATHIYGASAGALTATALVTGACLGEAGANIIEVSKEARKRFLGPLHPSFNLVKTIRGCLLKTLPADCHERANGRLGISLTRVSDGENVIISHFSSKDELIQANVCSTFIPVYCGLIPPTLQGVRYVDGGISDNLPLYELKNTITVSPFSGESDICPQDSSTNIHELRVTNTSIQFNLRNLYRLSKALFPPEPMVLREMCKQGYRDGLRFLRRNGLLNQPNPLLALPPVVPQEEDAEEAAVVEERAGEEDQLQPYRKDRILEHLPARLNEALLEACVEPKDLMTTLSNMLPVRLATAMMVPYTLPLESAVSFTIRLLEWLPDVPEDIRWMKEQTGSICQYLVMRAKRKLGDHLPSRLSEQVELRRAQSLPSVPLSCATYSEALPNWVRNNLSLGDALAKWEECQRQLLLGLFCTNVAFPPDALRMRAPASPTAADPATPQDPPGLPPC
Briefly: FRET or BRET; phasor-based FLIM-FRET in live HeLa cells transiently co-transfected with a CFP donor (ATGL-CFP or ABHD5-CFP) and a YFP acceptor (PLIN5-YFP or PLIN5 S155A-YFP); 37°C, 5% CO2; before and after 20 μM forskolin. The settings on record: partners not purified.

The target of experiment [2] is T2, ABHD5-CFP (α-β hydrolase domain-containing 5 fused to CFP) (UniProt Q9DBL9 1-351).
T2 construct: α-β hydrolase domain-containing 5 (ABHD5, also known as CGI-58); also called CGI-58; source: HeLa cells, transiently transfected (Lipofectamine 3000), in live cells
T2 sequence (looked up): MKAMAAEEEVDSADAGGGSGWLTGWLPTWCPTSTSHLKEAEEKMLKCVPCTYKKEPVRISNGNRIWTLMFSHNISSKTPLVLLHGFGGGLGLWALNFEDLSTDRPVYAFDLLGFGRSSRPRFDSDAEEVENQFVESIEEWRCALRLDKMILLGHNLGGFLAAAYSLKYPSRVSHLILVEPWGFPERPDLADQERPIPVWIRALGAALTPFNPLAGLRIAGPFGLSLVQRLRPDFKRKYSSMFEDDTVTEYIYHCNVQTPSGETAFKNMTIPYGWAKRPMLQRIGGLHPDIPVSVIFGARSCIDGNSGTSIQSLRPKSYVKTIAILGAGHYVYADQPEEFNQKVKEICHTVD
Described as above. The settings on record: partners not purified.

B1: PLIN5-YFP (perilipin 5 fused to YFP) (natural protein, mouse, UniProt Q8BVZ1 1-463, looked up)
chain: MDQRGEDTTLAPHSRMSGDQTAQDPGSSLGELDQQNVVNRVVALPLVKATCTAVSSAYNSAKDRHPLLGSACRLAEHCVCSVTTCALDHAQPLLEHLQPQLATVNDLACRGLDKLEEKLPFLQQPSDMVVTSAKDTVAKSVTGMVDLAQRGRRWSGELRRSMSQAMDMVLGKSEKLVDRFLPMTEAELAVLAAEAEGPEVGTVEEQRQQQGYFVRLGSLSARLRHLAYEHSLGKLRQSKHRTQEMLAQLQETLELIQHMQRGASPSPTFHPPKTQELWGSWSPCLENGRSHSEVELETLALSRSLTLELQNAVDALAGCVRGLPPSAQAKVAEVQRSVDALQATFADAHCLGDVAPTALAEGRGSVARAHACVDEFLDLVLRAMPLPWLVGPFAPILVEQSEPLINLATCVDEVVGDPDPRWAHMDWPAQKRAWEAESADPGGQEAEPPRGQGKHTMMPELDF
notes: Perilipin 5 (PLIN5), murine; also called wild-type PLIN5; source: HeLa cells, transiently transfected (Lipofectamine 3000), in live cells
Turning to B1, the FRET efficiency worked out at 20% in experiment [1] and 25% in experiment [2].

B2: PLIN5 S155A-YFP (natural protein, mouse, UniProt Q8BVZ1 1-463, looked up)
chain: MDQRGEDTTLAPHSRMSGDQTAQDPGSSLGELDQQNVVNRVVALPLVKATCTAVSSAYNSAKDRHPLLGSACRLAEHCVCSVTTCALDHAQPLLEHLQPQLATVNDLACRGLDKLEEKLPFLQQPSDMVVTSAKDTVAKSVTGMVDLAQRGRRWAGELRRSMSQAMDMVLGKSEKLVDRFLPMTEAELAVLAAEAEGPEVGTVEEQRQQQGYFVRLGSLSARLRHLAYEHSLGKLRQSKHRTQEMLAQLQETLELIQHMQRGASPSPTFHPPKTQELWGSWSPCLENGRSHSEVELETLALSRSLTLELQNAVDALAGCVRGLPPSAQAKVAEVQRSVDALQATFADAHCLGDVAPTALAEGRGSVARAHACVDEFLDLVLRAMPLPWLVGPFAPILVEQSEPLINLATCVDEVVGDPDPRWAHMDWPAQKRAWEAESADPGGQEAEPPRGQGKHTMMPELDF
notes: Perilipin 5 (PLIN5), murine, with the phosphorylation-defective S155A mutation; also called phospho-mutant S155A; source: HeLa cells, transiently transfected (Lipofectamine 3000), in live cells
With B2, the FRET efficiency in experiment [1] was 20%; in experiment [2] it was 25%.
